The term Kd denotes the free concentration of one partner at which half of the binding sites on the other are occupied at equilibrium, for simple one-to-one binding. Higher therefore signals weaker binding. By koff is commonly meant the first-order rate constant of dissociation. A low value points to a long-lived complex. Broadly, the kon is a measure of how fast the partners come together.

The target in experiment [1] is T1, biotinylated renin D226A mutant (human, biotin (NHS-PEG4-Biotin), preferentially on N-terminal alpha-amino groups).
T1 construct: human renin D226A, as m1; source: HEK293EBNA cells, purified; biotinylated with EZ-link-NHS-PEG4-Biotin at pH 6.2
T1 sequence (P00797 67-406 with D226A, looked up): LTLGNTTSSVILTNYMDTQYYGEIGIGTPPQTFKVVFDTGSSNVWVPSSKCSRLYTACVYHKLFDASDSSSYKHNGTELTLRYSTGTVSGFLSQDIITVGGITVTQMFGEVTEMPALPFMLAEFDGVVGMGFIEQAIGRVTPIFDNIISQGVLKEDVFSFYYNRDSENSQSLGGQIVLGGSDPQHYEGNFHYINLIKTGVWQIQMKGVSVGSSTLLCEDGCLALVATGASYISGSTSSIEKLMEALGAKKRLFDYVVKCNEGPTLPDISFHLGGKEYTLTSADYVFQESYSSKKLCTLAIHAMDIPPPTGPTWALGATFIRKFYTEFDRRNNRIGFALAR
The experiment is described as follows: BLI; as a1 (biotinylated renin D226A on streptavidin biosensors), but KD from steady-state analysis because on and off rates were very fast. To be noted: both partners purified.

The target of experiment [2] is T1, biotinylated renin D226A mutant. The experiment can be described thus: BLI; FortéBio Octet Red96; biotinylated renin D226A (2.5 μg/ml) loaded on streptavidin biosensors; 2-fold dilutions of AGT in 10 mM Tris, pH 7.4, 0.15 M NaCl, 1% BSA; 1:1 binding model, global fit; KD = koff/kon; three independent assays. To be noted: both partners purified.

B1: spent AGT (human AGT without the N-terminal 10-residue angiotensin I peptide) (domain or fragment)
chain: VIHNESTCEQLAKANAGKPKDPTFIPAPIQAKTSPVDEKALQDQLVLVAAKLDTEDKLRAAMVGMLANFLGFRIYGMHSELWGVVHGATVLSPTAVFGTLASLYLGALDHTADRLQAILGVPWKDKNCTSRLDAHKVLSALQAVQGLLVAQGRADSQAQLLLSTVVGVFTAPGLHLKQPFVQGLALYTPVVLPRSLDFTELDVAAEKIDRFMQAVTGWKTGCSLMGASVDSTLAFNTYVHFQGKMKGFSLLAEPQEFWVDNSTSVSVPMLSGMGTFQHWSDIQDNFSVTQVPFTESACLLLIQPHYASDLDKVEGLTFQQNSLNWMKKLSPRTIHLTMPQLVLQGSYDLQDLLAQAELPAILHTELNLQKLSNDRIRVGEVLNSIFFELEADEREPTESTQQLNKPEVLEVTLNRPFLFAVYDQSATALHFLGRVANPLSTA
modifications: glycosylated
B1: binding in experiment [1] was put at a Kd of 13 µM.

B2: fully glycosylated WT human angiotensinogen (AGT) (natural protein)
chain: DRVYIHPFHLVIHNESTCEQLAKANAGKPKDPTFIPAPIQAKTSPVDEKALQDQLVLVAAKLDTEDKLRAAMVGMLANFLGFRIYGMHSELWGVVHGATVLSPTAVFGTLASLYLGALDHTADRLQAILGVPWKDKNCTSRLDAHKVLSALQAVQGLLVAQGRADSQAQLLLSTVVGVFTAPGLHLKQPFVQGLALYTPVVLPRSLDFTELDVAAEKIDRFMQAVTGWKTGCSLMGASVDSTLAFNTYVHFQGKMKGFSLLAEPQEFWVDNSTSVSVPMLSGMGTFQHWSDIQDNFSVTQVPFTESACLLLIQPHYASDLDKVEGLTFQQNSLNWMKKLSPRTIHLTMPQLVLQGSYDLQDLLAQAELPAILHTELNLQKLSNDRIRVGEVLNSIFFELEADEREPTESTQQLNKPEVLEVTLNRPFLFAVYDQSATALHFLGRVANPLSTA
modifications: N-linked glycans (fully glycosylated; glycosylation sites Asn14, Asn137, Asn271, Asn295)
As for B2, in experiment [2], the Kd is 0.0203 µM, the koff stood at 0.000437 s⁻¹ and the kon worked out at 21500 M⁻¹ s⁻¹.

The values above are taken from PMC6378967, “Structural basis for the specificity of renin-mediated angiotensinogen cleavage” (The Journal of Biological Chemistry, 2018).
